# B1: HBP: Native human heparin-binding protein, mature form with the amino acid sequence SEQ ID NO:1 (protein, listed as Homo sapiens)
# chain: IVGGRKARPRQFPFLASIQNQGRHFCGGALIHARFVMTAASCFQSQNPGVSTVVLGAYDLRRRERQSRQTFSISSMSENGYDPQQNLNDLMLLQLDREANLTSSVTILPLPLQNATVEAGTRCQVAGWGSQRSGGRLSRFPRFVNVTVTPEDQCRPNNVCTGVLTRRGGICNGDGGTPLVCEGLAHGVASFSLGPCGRGPDFFTRVALFRDWIDGVLNNPGPGPA
# Legend:
# [1] = tested on: EC monolayers (HUVEC or BAEC); experiment: Transendothelial electrical resistance (TEER) of EC monolayers after HBP stimulation; assay type: cell-based, human, bovine
# Method: Human umbilical vein endothelial cells (HUVEC) are isolated from fresh umbilical cords as described by Jaffe et al., 1973, J. Clin. Invest. 52:2745-2756), and bovine aorta endothelial cells (BAEC) are isolated according to the method of Booyse et al., 1975, Thromb. Diath. Haemmorrh. 24:825-839) with a few modifications. Briefly, the lumen of the umbilical vein or bovine aorta is incubated with a 0.25% collagenase solution for 10 min, and detached endothelial cells washed out with PBS. Harvested cells are pelleted and resuspended in culture medium, seeded in tissue culture flasks and incubated under standard conditions. Medium is changed every 48 h until cultures have reached confluence (3-5 days). HUVEC or BAEC in the first to fifth passages are used in the experiments. Identification and purity determination of ECs are based on cobblestone morphology and characterization by factor VIII/vWf antigen (Booyse et al., 1975, Thromb. Diath. Haemmorrh. 24:825-839). Staining for factor VIII/vWf factor is homogeneous in the cells.
# Cultured EC are detached by brief (2 min) trypsin-EDTA treatment (0.25% trypsin/0.01% EDTA) and replated onto either 0.2 μm pore size Anopore inorganic membrane or 3.0 μm pore size polycarbonate filters (Tissue Culture inserts, 10 mm; NUNC, Roskilde, Denmark). […] The ECs are grown to confluent monolayers, as assessed by daily microscopic observation and measurement of the electrical resistance across the monolayer.
# For measurement of electrical resistance across the EC monolayer, the filter insert is transferred to a resistance measurement chamber (ENDOHM-12; World Precision Instruments, Sarasota, Fla., USA) modified so as to assure exact positioning of the electrodes in relation to each other and to the filter insert during repeated measurements. […] Direct readings of the electrical resistance are given by an ohmmeter (EVOM; World Precision Instruments, Sarasota, Fla., USA) connected to the electrodes of the resistance chamber. […]
# [2] = tested on: fecal peritonitis; conditions: HBP treatment; cited from earlier work
# [3] = 3H-LPS binding to HBP, scintillation proximity assay; conditions: saturation, SPA
# Method: The affinity for lipopolysaccharide (3H-LPS) is measured by scintillation proximity assay technology (SPA) as described (Linde, V., Bjørn, S., Kastrup, J. S., and Flodgaard, H., 2000, Biotechniques 28:218-222). All samples are repeated in triplicates.
# [4] = tested on: hamster cheek pouch microvasculature; experiment: Intravital microscopy of hamster cheek pouch microvessel permeability; assay type: in vivo, Syrian golden hamsters; conditions: topical HBP 75 μg/ml
# Source text: In order to study the effect of PMN secretion products on microvessel permeability in vivo, intravital microscopy of the hamster cheek pouch microcirculation is applied. As previously described in detail (Raud & Lindbom, 1994, Immunology of the Microcirculation, Academic Press, 1994, chapter 7), the left cheek pouch of anaesthetized Syrian golden hamsters is everted and prepared for microscopic observation under continuous superfusion with a bicarbonate buffer maintaining physiological levels of temperature, pH and gas tensions. FITC-conjugated dextran (MW: 150.000) injected i.v. (250 mg/kg body weight) is used as plasma tracer to permit visualization of changes in vascular permeability to macromolecules. The microvasculature in the exposed cheek pouch is observed under low magnification in fluorescent light with a Leitz Orthoplan microscope and recorded on video. After control recordings, superfusion is stopped and 1 ml of medium containing CD18 cross-linking-evoked PMN secretion at 37° C. is topically applied to the cheek pouch. In parallel experiments, anti-CD18-treated PMN medium is not subjected to cross-linking is used.
molecule,measurement,setting,value
B1,onset of decrease in transendothelial resistance,[1]; HBP 75 μg/ml to upper compartment,within one min
same,"decrease in transendothelial resistance, maximum","[1]; HBP 75 μg/ml to upper compartment, after 15 min",30%±3%
same,dose dependence of EC responses (TEER),"[1]; HBP 25, 50 and 75 μg/ml",clearly dose-dependent
same,survival,[2],rescue mice from an otherwise lethal injury
same,apparent Kd for 3H-LPS,[3],approximately 0.7 μg/mL
same,time of maximum leakage response after challenge,[4],7 to 10 min
same,time to complete disappearance of leakage,[4],≤ 30 min
same,time to visible leaky spots of fluorescent tracer,[4],≤ 2 min
